Measured values from the supplement of paper PMC9112550, “Optimization of the antimicrobial peptide Bac7 by deep mutational scanning” (BMC Biology, 2022).

System: Escherichia coli TOP10
Assay: shrunken log2 fold change of peptide-encoding DNA abundance (4.5 h post-induction vs induction); higher = less antimicrobial activity (less host growth inhibition)
Conditions: time post-induction: 4.5 h; library: site-saturation at positions 5, 18, 19, 20
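Note: peptides expressed intracellularly from a pBAD plasmid library in pooled LB shake-flask culture, induced with 0.3% L-arabinose, DNA abundance read by NGS, three biological replicates, DESeq2 with apeglm shrinkage.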

Q: With RRIRRRPPRLPRPRPRPPFHPRP as the sequence, how does the “shrunken log2 fold change” value read?
A: Its value is 0.321.

Q: RRIRCRPPRLPRPRPRPSPKPRP was tested. Which “shrunken log2 fold change” value did it give?
A: The value was -0.326.

Q: How did the “shrunken log2 fold change” value turn out when RRIRDRPPRLPRPRPRPVTKPRP was run?
A: Its value is -0.173.

Q: How did the “shrunken log2 fold change” value turn out when RRIRRRPPRLPRPRPRPLVVPRP was run?
A: The value was 0.312.

Q: How did the “shrunken log2 fold change” value turn out when RRIRVRPPRLPRPRPRPTIVPRP was run?
A: The value was -0.497.

Q: With RRIRIRPPRLPRPRPRPCRTPRP as the sequence, how does the “shrunken log2 fold change” value read?
A: Its value is -0.333.

Q: With RRIRKRPPRLPRPRPRPRDGPRP as the sequence, how does the “shrunken log2 fold change” value read?
A: Its value is 0.822.

Q: RRIRDRPPRLPRPRPRPLSCPRP was tested. Which “shrunken log2 fold change” value did it give?
A: The value was -0.212.

Q: Which “shrunken log2 fold change” value does the source give for RRIRLRPPRLPRPRPRPCFSPRP here?
A: Its value is -0.112.

Q: For RRIRIRPPRLPRPRPRPDMVPRP, which “shrunken log2 fold change” value is on record?
A: Its value is 0.0032.

Q: How did the “shrunken log2 fold change” value turn out when RRIRLRPPRLPRPRPRPLLWPRP was run?
A: The value was 0.195.

Q: RRIRSRPPRLPRPRPRPHQKPRP was tested. Which “shrunken log2 fold change” value did it give?
A: The value was -0.189.

Q: RRIRERPPRLPRPRPRPANEPRP was tested. Which “shrunken log2 fold change” value did it give?
A: Its value is -0.916.

Q: RRIRERPPRLPRPRPRPNPGPRP was tested. Which “shrunken log2 fold change” value did it give?
A: Its value is -0.55.

Q: For RRIRARPPRLPRPRPRPKEMPRP, which “shrunken log2 fold change” value is on record?
A: Its value is 0.324.

Q: With RRIRWRPPRLPRPRPRPAHIPRP as the sequence, how does the “shrunken log2 fold change” value read?
A: The value was -0.0509.

Q: How did the “shrunken log2 fold change” value turn out when RRIRIRPPRLPRPRPRPSLWPRP was run?
A: Its value is 0.211.

Q: With RRIRSRPPRLPRPRPRPVYHPRP as the sequence, how does the “shrunken log2 fold change” value read?
A: Its value is 0.0286.

Q: With RRIRLRPPRLPRPRPRPGSFPRP as the sequence, how does the “shrunken log2 fold change” value read?
A: The value was 0.236.

Q: Which “shrunken log2 fold change” value does the source give for RRIRRRPPRLPRPRPRPRGAPRP here?
A: Its value is 0.8.

Q: RRIRSRPPRLPRPRPRPRNMPRP was tested. Which “shrunken log2 fold change” value did it give?
A: Its value is -0.53.

Q: RRIRSRPPRLPRPRPRPLKAPRP was tested. Which “shrunken log2 fold change” value did it give?
A: Its value is -0.234.

Q: RRIRARPPRLPRPRPRPQTFPRP was tested. Which “shrunken log2 fold change” value did it give?
A: Its value is -0.528.

Q: With RRIRSRPPRLPRPRPRPKIAPRP as the sequence, how does the “shrunken log2 fold change” value read?
A: Its value is 0.0525.

Q: RRIRMRPPRLPRPRPRPGCGPRP was tested. Which “shrunken log2 fold change” value did it give?
A: The value was 1.04.

Q: For RRIRMRPPRLPRPRPRPEHEPRP, which “shrunken log2 fold change” value is on record?
A: The value was 0.0191.

Q: For RRIRQRPPRLPRPRPRPPANPRP, which “shrunken log2 fold change” value is on record?
A: Its value is 0.409.

Q: How did the “shrunken log2 fold change” value turn out when RRIRYRPPRLPRPRPRPSKWPRP was run?
A: Its value is -0.155.

Q: With RRIRMRPPRLPRPRPRPWYLPRP as the sequence, how does the “shrunken log2 fold change” value read?
A: Its value is -0.0736.

Q: With RRIRPRPPRLPRPRPRPCFQPRP as the sequence, how does the “shrunken log2 fold change” value read?
A: The value was -0.0314.

Q: Which “shrunken log2 fold change” value does the source give for RRIRMRPPRLPRPRPRPCVAPRP here?
A: Its value is 0.764.

Q: Which “shrunken log2 fold change” value does the source give for RRIRARPPRLPRPRPRPLMCPRP here?
A: Its value is 0.0392.

Q: How did the “shrunken log2 fold change” value turn out when RRIRGRPPRLPRPRPRPTDPPRP was run?
A: Its value is 0.687.

Q: With RRIRDRPPRLPRPRPRPKRYPRP as the sequence, how does the “shrunken log2 fold change” value read?
A: The value was -0.236.

Q: How did the “shrunken log2 fold change” value turn out when RRIRSRPPRLPRPRPRPTPSPRP was run?
A: The value was 0.376.

Q: How did the “shrunken log2 fold change” value turn out when RRIRGRPPRLPRPRPRPRHQPRP was run?
A: Its value is 0.026.

Q: How did the “shrunken log2 fold change” value turn out when RRIRQRPPRLPRPRPRPMCVPRP was run?
A: Its value is -0.308.

Q: RRIRSRPPRLPRPRPRPMWRPRP was tested. Which “shrunken log2 fold change” value did it give?
A: Its value is 0.1.

Q: How did the “shrunken log2 fold change” value turn out when RRIRQRPPRLPRPRPRPQSIPRP was run?
A: The value was -0.0322.

Q: With RRIRFRPPRLPRPRPRPSMWPRP as the sequence, how does the “shrunken log2 fold change” value read?
A: Its value is -0.579.

Q: For RRIRVRPPRLPRPRPRPMKKPRP, which “shrunken log2 fold change” value is on record?
A: The value was 0.0174.

Q: Which “shrunken log2 fold change” value does the source give for RRIRQRPPRLPRPRPRPGRQPRP here?
A: Its value is 0.021.

Q: RRIRNRPPRLPRPRPRPINDPRP was tested. Which “shrunken log2 fold change” value did it give?
A: The value was 0.0259.

Q: RRIRMRPPRLPRPRPRPKIAPRP was tested. Which “shrunken log2 fold change” value did it give?
A: Its value is 0.244.

Q: Which “shrunken log2 fold change” value does the source give for RRIRVRPPRLPRPRPRPNGTPRP here?
A: The value was -0.356.

Q: Which “shrunken log2 fold change” value does the source give for RRIRFRPPRLPRPRPRPLSVPRP here?
A: The value was -0.271.

Q: Which “shrunken log2 fold change” value does the source give for RRIRIRPPRLPRPRPRPELWPRP here?
A: Its value is 0.243.

Q: With RRIRERPPRLPRPRPRPWVHPRP as the sequence, how does the “shrunken log2 fold change” value read?
A: The value was -0.0432.

Q: Which “shrunken log2 fold change” value does the source give for RRIRERPPRLPRPRPRPGWLPRP here?
A: Its value is 0.256.

Q: For RRIRERPPRLPRPRPRPHIQPRP, which “shrunken log2 fold change” value is on record?
A: The value was -0.705.

Q: With RRIRWRPPRLPRPRPRPDSCPRP as the sequence, how does the “shrunken log2 fold change” value read?
A: Its value is -0.0201.

Q: With RRIRFRPPRLPRPRPRPKHGPRP as the sequence, how does the “shrunken log2 fold change” value read?
A: The value was 0.405.

Q: How did the “shrunken log2 fold change” value turn out when RRIRVRPPRLPRPRPRPAKKPRP was run?
A: Its value is 0.0179.

Q: Which “shrunken log2 fold change” value does the source give for RRIRRRPPRLPRPRPRPYHWPRP here?
A: Its value is -0.48.

Q: With RRIRPRPPRLPRPRPRPYDHPRP as the sequence, how does the “shrunken log2 fold change” value read?
A: The value was -0.0209.

Q: RRIRYRPPRLPRPRPRPGYQPRP was tested. Which “shrunken log2 fold change” value did it give?
A: The value was -0.241.

Q: For RRIRVRPPRLPRPRPRPCQKPRP, which “shrunken log2 fold change” value is on record?
A: Its value is -0.0265.

Q: With RRIRQRPPRLPRPRPRPYCPPRP as the sequence, how does the “shrunken log2 fold change” value read?
A: Its value is -0.422.

Q: With RRIRERPPRLPRPRPRPESNPRP as the sequence, how does the “shrunken log2 fold change” value read?
A: The value was -0.65.

Q: RRIRWRPPRLPRPRPRPDRNPRP was tested. Which “shrunken log2 fold change” value did it give?
A: The value was 0.0394.

Q: With RRIRERPPRLPRPRPRPYRRPRP as the sequence, how does the “shrunken log2 fold change” value read?
A: Its value is -0.0227.

Q: RRIRLRPPRLPRPRPRPDQLPRP was tested. Which “shrunken log2 fold change” value did it give?
A: The value was -0.0435.

Q: RRIRQRPPRLPRPRPRPTMIPRP was tested. Which “shrunken log2 fold change” value did it give?
A: The value was 0.151.

Q: For RRIRTRPPRLPRPRPRPGQKPRP, which “shrunken log2 fold change” value is on record?
A: Its value is 0.0923.

Q: With RRIRRRPPRLPRPRPRPAMGPRP as the sequence, how does the “shrunken log2 fold change” value read?
A: Its value is 0.142.

Q: RRIRQRPPRLPRPRPRPTMNPRP was tested. Which “shrunken log2 fold change” value did it give?
A: Its value is -0.298.

Q: Which “shrunken log2 fold change” value does the source give for RRIRHRPPRLPRPRPRPFNPPRP here?
A: The value was -0.17.

Q: Which “shrunken log2 fold change” value does the source give for RRIRIRPPRLPRPRPRPMIGPRP here?
A: Its value is -0.477.

Q: With RRIRCRPPRLPRPRPRPYYRPRP as the sequence, how does the “shrunken log2 fold change” value read?
A: The value was -0.301.

Q: How did the “shrunken log2 fold change” value turn out when RRIRHRPPRLPRPRPRPTARPRP was run?
A: The value was 0.156.

Q: With RRIRFRPPRLPRPRPRPHGFPRP as the sequence, how does the “shrunken log2 fold change” value read?
A: The value was -0.105.

Q: How did the “shrunken log2 fold change” value turn out when RRIRYRPPRLPRPRPRPYNRPRP was run?
A: Its value is -0.0152.

Q: How did the “shrunken log2 fold change” value turn out when RRIRSRPPRLPRPRPRPHYYPRP was run?
A: Its value is -0.581.

Q: RRIRWRPPRLPRPRPRPFMNPRP was tested. Which “shrunken log2 fold change” value did it give?
A: The value was -0.11.

Q: With RRIRCRPPRLPRPRPRPYAQPRP as the sequence, how does the “shrunken log2 fold change” value read?
A: The value was -0.227.
